From patent US20070178082A1 (Ablynx, published 2007) come the findings set out here.

The target of one assay is T1, mouse serum albumin (mouse, UniProt P07724 25-608).
T1 construct: also called MSA; mouse albumin
The assay is described as follows: BIACORE, mouse albumin immobilised on CM5 chip.

The target of the next assay is rabbit serum albumin (rabbit, UniProt P49065 25-608). As to the kind of experiment: Blot: phage displaying the nanobody on plasma (1/10) separated by SDS-PAGE and blotted on nitrocellulose, anti-M13-HRP [panel MSA 24].
Sequence of rabbit serum albumin (P49065 25-608 limits assumed): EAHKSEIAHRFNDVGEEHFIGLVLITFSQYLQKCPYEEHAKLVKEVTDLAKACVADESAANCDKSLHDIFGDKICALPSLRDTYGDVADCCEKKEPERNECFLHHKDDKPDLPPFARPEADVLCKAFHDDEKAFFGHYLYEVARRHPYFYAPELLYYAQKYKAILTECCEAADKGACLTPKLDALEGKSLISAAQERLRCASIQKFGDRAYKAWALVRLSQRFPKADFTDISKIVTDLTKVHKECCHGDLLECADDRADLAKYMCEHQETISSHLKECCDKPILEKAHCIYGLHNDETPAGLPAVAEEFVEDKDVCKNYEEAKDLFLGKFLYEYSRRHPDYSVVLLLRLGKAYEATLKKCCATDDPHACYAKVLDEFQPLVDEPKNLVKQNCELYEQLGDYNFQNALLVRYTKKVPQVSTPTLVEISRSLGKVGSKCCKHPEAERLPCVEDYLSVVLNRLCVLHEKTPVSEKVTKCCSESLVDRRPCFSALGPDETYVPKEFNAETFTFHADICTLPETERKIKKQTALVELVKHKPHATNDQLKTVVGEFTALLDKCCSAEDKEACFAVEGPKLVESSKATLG

T1 sequence (P07724 25-608 limits assumed): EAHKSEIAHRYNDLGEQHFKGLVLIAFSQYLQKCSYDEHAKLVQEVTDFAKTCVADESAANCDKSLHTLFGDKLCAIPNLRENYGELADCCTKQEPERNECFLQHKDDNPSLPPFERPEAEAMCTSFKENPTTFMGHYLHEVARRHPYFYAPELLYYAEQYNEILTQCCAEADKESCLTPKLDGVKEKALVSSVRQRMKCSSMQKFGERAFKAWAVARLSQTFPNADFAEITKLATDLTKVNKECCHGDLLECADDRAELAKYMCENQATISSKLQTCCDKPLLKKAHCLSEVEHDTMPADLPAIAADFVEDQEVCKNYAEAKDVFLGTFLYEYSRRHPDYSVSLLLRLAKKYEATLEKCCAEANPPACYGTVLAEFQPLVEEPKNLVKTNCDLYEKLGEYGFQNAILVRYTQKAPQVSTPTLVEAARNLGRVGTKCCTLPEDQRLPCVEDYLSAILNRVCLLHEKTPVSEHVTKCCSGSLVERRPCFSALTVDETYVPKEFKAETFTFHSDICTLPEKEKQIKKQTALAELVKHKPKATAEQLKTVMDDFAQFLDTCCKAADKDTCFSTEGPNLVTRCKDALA

B1: MSA24 (VHH)
VHH: QVQLQESGGGLVQPGNSLRLSCAASGFTFRNFGMSWVRQAPGKEPEWVSSISGSGSNTIYADSVKDRFTISRDNAKSTLYLQMNSLKPEDTAVYYCTIGGSLSRSSQGTQVTVSS
notes: Llama VHH selected on mouse serum albumin
On to B1, for which, in the assay with mouse serum albumin, the Kd is 28 nM, the koff is 0.018 s⁻¹ and the kon amounted to 640000 M⁻¹ s⁻¹. Also, the binding result with rabbit serum albumin is “no binding”.
